Assay results as given in the nanobody polyreactivity screen of Harvey et al. (2022).

test: yeast display, Sf9 membrane polyspecificity reagent, FACS + sequencing; frameworks hold sequencing errors
Outline: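 Galactose-induced (36–48 hours) yeast carrying a synthetic nanobody display library were exposed to 10% biotinylated, detergent-solubilized Sf9 membrane reagent at 4 °C for 1 hour. FACS followed streptavidin microbead enrichment, using low and high (top ~1%) gates for expression (anti-HA) and reagent binding (streptavidin). Colony PCR, MiSeq 2 × 250 sequencing and CDR-length filtering followed. Labels for polyreactivity reflect the gate of origin.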

Sequence | polyreactivity (PSR sort gate)
QVQLVESGGGLVQAGGSLRLSCAASGSTFPSYAMGWYRQAPGKERELVAAINSGGGTNYADSVKGRFTISRDNAKNTVYLQMNSLKPEDTAVYYCATDDPLSQINEQGMDYWGQGTQVTVSS | low polyreactivity
QVQHVESGGGLVQAGGSLRLSCAASGRTFYSYAMGWYRQAPGKDRELVAAITSDGGTYYADSVKGRFTISRDNAKNTVYLQMNSLKPDDTAVYYCNTRDLYGYPQVTGYDYWGQGTQVTVSS | low polyreactivity
QVQLVESGGGLVQAGGSLRLSCAATGRIFAYNTMGWYRQAPGKERELVAVITSGGSTNYADSVKGRFTISRDNAKNTVYLQMNSLNPEDTAVYYCAKRPYGRSGGSRYDYWGQGTQVTVSS | high polyreactivity
QVQLVESGGVLVQAGGSLRLSCAASGSIFKLNAMGWYRQAPGKERELVAVINKSGGRTFYADSVKGRFTISRDNAKNTVYLQMNRLKPEDTAVYYCNAVSNLAVNLDYWGQGTQVTVSS | high polyreactivity
QVQLVESGGGLVQAGGSLRLSCAASGGTFSYNAMGWYRQAPGKERELVAAISWSGTRTYYADSVKGRFTISRDNAKNTVYLQMNSLKPEDTAVYYCNKPPPNRGRYDYWGQGTQVTVSS | low polyreactivity
QVQLVESGGGLVQAGGSLRLSCAASGRTFGIYAMGRYRQAPGKERELVAAITGRGGSTHYADSVKGRFTISRDNAKNTVYLQMNSLKPEDTAVYYCAADYRYNRGITSNKDYDYWGQGTQVTVSS | low polyreactivity
QVQLVESGGGLVQAGGSLRLSCAASGSIFWWNAMGGYRQAPGKERELVAAINWSTGRTYYADSVKGRFTISRDNAKNTVYLQMNSLKPEDTAVYYCAASFVGALGYDYWGQGTQVTVSS | low polyreactivity
QVQLVESAGGLVQAGVSLRLSCAASGFTFAQNVMGWYRQAPGKERELVAAISVSGGSTYYADSVKGRFTISRDNAKNTVYLQMNSLKPEDTAVYYCNAVAGVTKRVDLSRSGYWGLGTQVTVSS | high polyreactivity
QVQLLESGGGLVQAGGSIRLTCAASGRIFYGNTMGWYRQAPGQETELVAAITIGDSTNYADSVKGRFTISRDNAKYTVYLQMNSLKPEDTAVFYCGKRNWWGYYKYDYWGQGSQVTVSS | low polyreactivity
QVQLVESGVGLVQAVGSLRLSCAASGSILITNAMGWYRQAPGKERELVAAISSGGSTYYADSVKGRFTISRDNAKNTVYLQMNSLKPEDTAVYYFAADQLKVGREYVEYDYWGQGTQVTVSS | low polyreactivity
QVQLEESGGGLVQAGGSLRLSCAASGSTFDVYAMGWYRQAPGKERELVAAIRSSGGSTFYADSVKGRFTISRDNAKNIVYLQMNSLKPEDTAVYYCAARSFVVSGYNKYYEYGYWGQGTQVTVSS | low polyreactivity
HVQLVESGGGLVQAGGSLRLSCAASGSIFVPYTMGWSRQAPGKERELVAAINSSDDSKFYADSVKGRFTISRDNAKNPVYLQMNSLKPEDTAVYYCAASYYYTIGPYFRKFDWGQGTQVTVSS | low polyreactivity
QVQLVESGGGLVQAGGSLRLSCAASGFTFSFYAIGLYRQATVKEREVVAAISWSGGSTYYADSVKGRFTISRDNAKNTVYLQMNSLKPEDTAVYFCAAKLLYGGRNGYWGQGTQVTVSS | high polyreactivity
QVQLVESGGGLVQAGGSLRLSCAASGSILRRNTMGCYRQAPGKERELVAAINKTGGSTYYADSVKGRFTISRDNAKNTVYLQMNSLKPEDTAVYYCNRDKYYGTKYDYWGQGTQVTVSS | low polyreactivity
QVQLVESGGGLVQAGGSLRLSCAASGSIFSIYAMGWYRQAPWKERELVAAITWGGGSTYYADSVKGRFTISRDNAKNTVYVQMNSLKPEDTAVYYCAADSLTWYGTYYYWGQGTQVTVSS | high polyreactivity
QVQLVESGGGLVQAGGSLRLTCAASGYIFGVYAMGWYRQAPGKERELVATISSGGSTNYADSVKGRFTISRDNAKNTVYLQMNSLKPEDTAVYYCAAERYWTYYSGFVYGGDNYWGQGTQVTVSS | low polyreactivity
QVQLVESGGGLVQAGGSLRLSCAASGSSFWYNAMGWYRQAPGKERELVATISSRGDGTYYADSVKGRFTISRDNAKNTVYLQMNSLKPEDTAVYYCNKYRQQGWEFDYWGQGTQVTVSS | high polyreactivity
QVQLEESGGGLVQAGGSLRLSSAASGGTFRPYAMGWYRQAPGKERELVATIRSSGGRTYYADSVKGRFTISRDNAKNTVYLQMTSLKPEDTAVYYCAKRAQTYYGYDYWGQGTQVTVSS | high polyreactivity
QVQLVESGGGLVQAGGSLRLSCAASGFTFDYNAMGWYRQAPGKDRELVAAISESGGSTYYADSVKGRFTISRDNAKNTVYLQMNSLKPEDTAVYYCPTDFPVYYDYGYWGQGTQVTVSS | high polyreactivity
QVQLVESGAGVVQAGGSLRLSCAASGFTLHSYAMGWYRQAPGKERELVAAITRSGGGTYYADSVKGRFTISRDNAKKTVYLQMNSLKPEDTAVYYCAARFGGQYQHDYWGQGTQVTVSS | high polyreactivity

Sequence | polyreactivity (PSR sort gate)
QVQLVESGGGLDQAGGSLRLSCAASGSTFTRNAMRWYRQAPGKERELVATISSGGSTNYADSVKGRFTISRDNAKNTVYLQMNSLKPEDTAVYYCAKRSLYSYYYWGQGTQVTVSS | high polyreactivity
QVQLVESGGGLVQAGGSLRLSCAASGFTITRYARGWYRQAPGKERELVAVITYSGDTYYADSVKGRFTISRDNAKNTVYLQMNSLKPEDTAVYYCAVERAYYSDTGRYGYDYWGQGTQVTVSS | high polyreactivity
QVQRVESGRGLFHAGGSLRLSCAASGSIFIWNDMGWYRQAPGKERELVAAITISAGSTSYADSVKGRFTISRDNAKNTVYLQMKSLKPEDTAVYYCAAASWLGAYGYEYDYWGQGTQVTVSS | low polyreactivity
QVQLVESGGGLVQAGGSLRLSCAASGITFRYYAMGWYRQAPGKERELVAAISIRGRTYYADSVKGRFTISRDNAKNTVYLQMNSLKPEDTAVYYCAAVKRVVAFDYWGQGTQVTVSS | low polyreactivity
QVQLVESGGGLVQAGGSLRLSCAASGFTFYLYTMGWYRQAPGKERELVATITSDGGTNYADSVKGRFTISRDNAKNTVYLQMNSLKPEDTAVYYCNAASRRGSRKQAKYDYWGQGTQVTVSS | low polyreactivity
QVQLVESGGGLVQAGGSLRLSCAASGRTFHAYAMGWYRQAPGKGRELVAAITRTGTTHYADSVKGRFTISRDNAKNTVYLQMNSLKPEDTAVYYCAAQHVRVDAQFVLQGYDYWGQGTQVTVSS | low polyreactivity
QVQLVESGGGLVQAGGSLRLSCAASGRIFCKYAMGWYIQAPGKERELVAAISRSGASTYYADSVKGRFTISRDNAKNTVYLQMNSLKPEDTAVYYCAAVPPYNYRFRVYYWGQGTQVTVSS | high polyreactivity
QVQLVESGGGLVQAGGSLRLSCAASGFTFYYYVMGWYRQAPGKERELVAAITNGGSTYYADSVKGRFTISRDNAKNTVYLQMISLKPEDTAVYYCATRQSHWSGEFDYWGQGTQVTVSS | high polyreactivity
QVQLVESGGGLVQAGGSLRLCCAASGITFNYYTMGWYRQAAGNERELVAAIRSGGRTYYADSVKGRFTISRDNAKNTVYLQMNSLKPEDTAVYYGAALAVTYPYDYWGQGTQVTVSS | high polyreactivity
QVQLVESGGGLVQAGGSLLLSCAASGSILSKNAMGWYRQAPGKDRELVAAITWSGGSTYYADSVKGRFTISRDNAKNTVYLQMNSLKPEDTADYSCAADLDWSPQFGLPYDYWGQGTQVTVSS | low polyreactivity
QVQLVESGGGLVQAGCSLRLSCAASGITFNFYAMGWYRQAPGKERELVAAITSSGASTNYADSVKGRFTISRDNAKNTVYLQMNSLYPEDTAVYYCNAQRSRHSLYPVNELYYWGQGTQVTVTS | low polyreactivity
QVQLVESGGGLVQAGGSLRLSCAASGITFLNYAMGWSRQEPGKERELVAAITSGGSTYYADSVKGRFTITRDNAKNTVYLQMNSLKPEDTAVYYCAADGDSLPYSFWWQIRLDYWGQGTVVTVSS | low polyreactivity
QVQLVESRGGLVQAGGSLGLSCAASGPTFFYNAMGWYRQAPGKERELVAAISSGGGSTYYADSVKGRFTISRDNAKNTVYLQMNSLKPEDTAVYYCAGASYRQPGYGYWGQGTLVTVSS | high polyreactivity
QVQLVESGGGLVQAGGSLRLSCAASGIIFLNYAMGWYRQAPGKERELVAAITTSGGNTYYADSVKGRFTISRDNAKNTVYLQMNSLKPEDTAVYYCAATDLYFWYPYWFAFEYDYWGQGTQVTVSS | high polyreactivity
QVQLVESGGGLVQAGGSLRLSCSASGRIFQYYAMGWYIKAPGKERELVAAISGRGTSTYYADSVKGRFTISRDNAKNTVYLEMNSLKQEDTAVYYCNADINYKSYFIHTFTIIPYGYWGQGTQVTVSS | low polyreactivity
QVQLVESGGGLVQAGGILRLSCAASGFTFGRYAMGRSRQAPGKEREFVAAISYTGTSTYYADSVKGRFTISRDNAKNTVYLQMNSRNPEDTAVYYCNAKWRSHYTQWSYDYWGQCTQVTVSS | high polyreactivity
QVQLVESGGGLVHAGGSLRLSCAASGIIFVLHAMGWYRQAPGQERELVASISGIGGSTYYADSEKGRFTISRDNAKNTVYLQMNSLKPEDTAVYYCAARGWLSRYGYWGHGTQVTVSS | high polyreactivity
QVQLVESGGGLVQAGGSLRLSCAASGSIFPGYAMGWYRQAPGKERELVATITWSGGSTYYADSVKGRFTISRDNAKNTVYLQMNSLKPADTAVYYCNADSNWYYQWNYYGLYDYWGQGTQVTVSS | low polyreactivity
QVQLVESGGRLVQAGGSLRLSCAASGSTFDYNAMGWYRQEPGKESEFVAAITSTGGNTYYADSVKGRFTISRDNAKNTVYLQMNSLKPEDTAVDYCNKDVARYPYGKFDYWGQGTQVTVSS | low polyreactivity
QVQLVESGGGLVQAGGSLRLSCAASGYTFPDYAMGWYRQAPGKERELVAAFRSGGGTNYADSVKGRFTISRDNAKNTVYLQMNSLKPEDTAVYYCAKEWAGGLYDYWGQGTQVTVSS | low polyreactivity
